Results from patent US20170165342A1 (VIRGINIA COMMONWEALTH UNIVERSITY, published 2017).
Values joined by “and” are separate entries in the source; they are usually repeats but may differ in a detail not shown here. Equal values may be shown once.

B1: OmpA (outer membrane protein A) on the surface of A. phagocytophilum DC organisms (other)
chain: CGTLLPDSNVGVGRHDLGSHRSVAFAKKVEKVYFDIGKYDLKGPGKKVILELVEQLRQDDSMYLVVIGHADATGTEEYSLALGEKRANAVKQFIIGCDKSLAPRVTTQSRGKAEPEVLVYSTDAQEVEKANAQNRRAVIVVEFAHIPRSGVADMHAPVASSITSENSNASAEGEDMEASEFSSAIAN

Legend:
[1] = biological target: sLe^x-capped P-selectin glycoprotein ligand-1 (PSGL-1) (UniProt Q14242); assay: cell-based or functional assay
[2] = biological target: T1, sLe^x-capped P-selectin glycoprotein ligand-1 (PSGL-1) (UniProt Q14242 42-412, capped with the sialyl Lewis x (sLe^x) O-glycan); assay: cell-based or functional assay
T1 sequence: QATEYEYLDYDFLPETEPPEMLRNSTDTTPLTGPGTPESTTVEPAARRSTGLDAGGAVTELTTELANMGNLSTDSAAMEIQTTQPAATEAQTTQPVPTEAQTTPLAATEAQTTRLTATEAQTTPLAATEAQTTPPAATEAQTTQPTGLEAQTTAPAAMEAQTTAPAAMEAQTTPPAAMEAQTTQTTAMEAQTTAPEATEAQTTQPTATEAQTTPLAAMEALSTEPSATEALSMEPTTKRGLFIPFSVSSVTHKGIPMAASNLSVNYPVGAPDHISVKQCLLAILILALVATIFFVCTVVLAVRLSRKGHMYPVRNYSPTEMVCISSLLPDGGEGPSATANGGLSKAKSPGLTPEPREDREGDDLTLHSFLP

Molecule | numbers of bound DC organisms per PSGL-1 CHO cell after incubating PSGL-1 CHO cells with KPL-1 (fold reduction) [1] | bacterial binding to PSGL-1 CHO cells after pretreating bacteria with anti-OmpA [2] [fold reduction]
KPL-1, PSGL-1 N-terminus-specific antibody | 2 and 3 | 
B1 |  | ~2
